Data on 17 sequences can be found in the DeepSol protein solubility set.

The nature of the data set: soluble on expression in E. coli; label from the status in PepcDB or PDB records.
In the case of “MVLLSVFLATGCTDTEQQPDTTTITEPDTTTTAQSETSKLIVSTTTSLEDTGLLEEIEAAFEDKYPGVDVLVISGGTGIAIQYGERGDADILLTHDKSREEEFVNNGFGTNRTEIAYNYFWIVGPENDPAGINGLNATEAFTRIMEEGQNDSDQVKFASRGDDSGTHAREKKIWESTGVSYGEINSSGEWYIESGRGMGETLLLSNEQNAYTLTDSGTFLAYTNEGRIQIVPIVTAGDELLNVYAAMPVNPEKHPNVNYEGAQNFVDFLVSSEGQEIIGNFGREQYGEPLFTPISEGLPS”, the “soluble on expression in E. coli” value is given as “not soluble”.

Take “MNRILIVEDEKNLARFIELELQHENYETAVANDGRAGLELALNEEWDAILLDLMLPHLNGVEVCRRVRQVKQTPIIMITARDSVIDRVSGLDHGADDYIVKPFAIEELLARLRSLLRRVENAEQSAKQTTLQYRNLIVEKENRIVKRDEEIIDLTKREYELLLTLMENVNIVLTREVLLNKVWGYETEVETNVVDVYVRYLRNKIDHPDEESYIQTVRGTGYVMRT”: the “soluble on expression in E. coli” value is “not soluble”.

For “MLLRKFCGIEKTDNGYLIHGDAGDIKLVFMTDDIIRIRVSFDRKFKEASYALVTTAWEDELDELFQEERTRIQAKDVVCEEKEDALIFHTTALKLVMKKQPIQFLLYDVEGKLIYNDLKERAFDQDQLGRVTHYSEIHADTDHFYGFGEKTGHLDKKGRHLRMSPKDAIGADPEFGEPLYKHVPFYIRVNEENLHALGLFYNNSYDAVFDMGNERSGYWDSYCYYQADGGDIDLFLINGPKMASVLERYTYLTGRQAMPTKQSLGYTASTMYYAELEQNCDEEIYKVIQKHFDEKIYIDNFWLASGYSSGEEDNLRYVFNWNKKRFPDPEGFFEKMEQEMGINVIPNMKPGILKNHPYRKVFEQYDAFVKTPDKAEDYVGRWWGGEGRFVDFTKKAGRDAWKELLKKNLMAKGMRTVWNDNCEYDGVEDRNAYCDHEGMGGTMAELKIIQSNMMAYTGKEALKEVYPKARPYIINRAGYAGIQRYAQVWAGDNLTDWRTVKFNIATIMGMGLSGMSNAGCDIGGFAGPAPGGELLLRWIQNGIFQPRFCINSANNDNTVTQPWMYEENLPYVQAAYAQRYRMIPYLYSVMRESHENGMPVMRPLFLEFPEDVKCYRDQNLTFMFGPSVLVANVVEKGAITRTIYLPKGTTWYDMNDNFKAYEGGQTIELPVDLSSIPMFLRGSAVYMTTEDIHHIAKDTMKALDLFVSCEEDAEFTYYDDDGWSKEYEEGNFAETKISVKAGDRKQIHFHKNGFYQESWENLNLNVVSKEKGAYWVSVDGEKIPRFLIRDAFDEAETGWYYDMSDRIVKVKCKKPQKDDFEIVVSCEKFDLIGMENEI”, the “soluble on expression in E. coli” value was “not soluble”.

For the sequence “MSLTRRSDTSLRAALIIQNWYRGYKARLKARQHYALTIFQSIEYADEQGQMQLSTFFSFMLENYTHIHKEELELRNQSLESEQDMRDRWDYVDSIDVPDSYNGPRLQFPLTCTDIDLLLEAFKEQQILHAHYVLEVLFETKKVLKQMPNFTHIQTSPSKEVTICGDLHGKLDDLFLIFYKNGLPSERNPYVFNGDFVDRGKNSIEILMILCVSFLVYPNDLHLNRGNHEDFMMNLRYGFTKEILHKYKLHGKRILQILEEFYAWLPIGTIVDNEILVIHGGISETTDLNLLHRVERNKMKSVLIPPTETNRDHDTDSKHNKVGVTFNAHGRIKTNGSPTEHLTEHEWEQIIDILWSDPRGKNGCFPNTCRGGGCYFGPDVTSKILNKYQLKMLIRSHECKPEGYEICHDGKVVTIFSASNYYEEGSNRGAYIKLCSGTTPRFFQYQVTKATCFQPLREGHHHHHH”, the “soluble on expression in E. coli” value is recorded as “not soluble”.

“MTIHQHPHVTDRDAHFVGGGIASLAGAAFLVRDGNMPGENIHVYEKLDVVGGAMDGAGDPDEAYLIRGGRMFNYPAYECTWDLFETIPSLEDDSRSVKAVMDEFNETHPSYAKTRLMHEGERIDAGEYGLTRQHRQSIARLLLTPEPRLGDTRIEEWFDESFLETNFWYVWATIFAFQPWHSVAEVRRYMYRFLHEFPQLHTMEGIDRTKYNQYDSMILPLRRWLEDRGVSFEYGHEVTDMDIVPSRTGRTVERLYCETDSGTETVPVEPSDLVFVTNGSMTDGSSIGGMDEAPELNETGASWELWKSIAEDNPQFGNPSVFADNVTETKWESFTVTLHNTDLFDHIVDFTNEEPGNGLVTYLGSNWLLSTVVAAQPHFANQPDDVKVFWGYALFPDREGNYVEKPMSECTGREILQELCYHLQCEERLPEILDDVTCIPAMMPFITAHFQPREPGDRPDVVPDGSNNLAFLGQYAEQPRDVVFTVEYSVRSAMTAVYEMLDLDREVPPVSKHYRKPGVIADTVRAAYRLEHHHHHH”: the “soluble on expression in E. coli” value is “not soluble”.

For “MKVEIEPQTLRYQPKEIRETKRPTIAYEHPNALTYLKSMKENIIRFANKKSLYTQHDEYIKNVFMDERVNLKYHCESIVSYIAEAFIHYSVWDHSHAYYPGRPSQQTARTDALEGTSRTLPTLAAWLHANGRSNTIITGLNQQPILVPEILRKAFLAGTNPQHKGYWGTLHHCDQRVCEGADLALALWMSKEWVWDCFSIDEKCQIITWFKQVNQCETVDNNWHLFVLTVQIVLKALTGEDEVQYDKYERVKEFYVGDGWFRDGAKGNYDYYNAWAFHYSLYWFTQIDVDFDSTFINNALSDFVGNYRYFFGKEGFPFFGRSACYRLAAAAPLLAAVDLQSDKITIGEAKRAFHCNLKYFISNGALKAGLPTQGLFDEDVRLVDNYSGPASSLWSLRALNIALFCGEKINLWQAEEAPLAIEQGNFELDISAINMKILGVYETQEVIAIFKNEYTQDQSPLSRRLLAPSRWEQTIEKITGRANRPKNNLLRKGITCYSSKMESFFLEHHHHHH”, the “soluble on expression in E. coli” value is recorded as “not soluble”.

In the case of “MGSDKIHHHHHHMTVIDLSALDPPDLVETLDFEAAYQYKLQHFKSIYPDWTAALESDPVVKLIELAAYDEVRFRARVNDAGRAVLLAYSTGADLEHLAVLWNLQRETVDPGDPEAHPPVPATRERDERLRLRTQMGIERSSTAGPFGAYRSLAMDASPDVADVRVDRPEAGVVRVVVKSYSNGGVASAALLDTVRRALSPEDRRPLNDSLLVVAARPVNYAIVADVYIGRGPDPGVVLAARRQDLDIAVAAGEALRVGMPRSAVTGALHPKASGVVRVDLKLPAADVVCAIDQFARCTSIVLNPKVADDD”, the “soluble on expression in E. coli” value was “not soluble”.

“MARATLACMEKITGAERSPEARDSAGAVGGADGREALVARVRAGERIKYLCFWGHRPLPDGRLGPSCLSQWWPSPFTVAGVEYATAEHWMMAGKARLFGDPEAERRVLAAAHPAGAKKAGRLVRGFDEAVWERERFRIVVEGSVHKFASDPALRVFLLATGERVLVEASPVDRVWGIGLAADDEAAVDPERWRGPNLLGFALMAARERLRAGELEHHHHHH”: the “soluble on expression in E. coli” value is “not soluble”.

With “MSLQVWTKLFAKSPFKPLIKHAEVVVETVETLEKALEAWAKGDYEKMKELAVEVDRLEDVADRIKMELRESITAKLLMPVQRSDVLEYLHMQDKIADAAEDTAKWLLVRDRGNVPEDIKDIILKMGKESIRAAKLVYEAIKQMDMVVESGFSENEIKKEYDLIRQIEEVENKIDGLDTKLMRLVLNANISWTEGIYLLNIGRTISNISDKAKDAAERIRIMMSKEGHHHHHH”, the “soluble on expression in E. coli” value is given as “soluble”.

In the case of “MGSDKIHHHHHHMAVQFELYKTPMPKEKKNKTRYHARPVSFETVNTEKLAYRIHDRSTLRVSDIISTLEELKNEVAQCLLEGKKVHVDGLGFFQVTLSCEEEIRNPKDKRVHRVKLKAIKFKADKELKGELCHMKFQRSKIRPHSANLSEVEIDMKLTEYFAENQIITRKDFQYLCGMTQITAYRHIKRLMAEKKLQNKGTIYQPIYTPVPGNYRVSVDLKYKEQ”, the “soluble on expression in E. coli” value is listed as “not soluble”.

Take “MNRKTGTTTVGIKVKDGVILAADTQASLDHMVETLNIRKIIPITDRIAITTAGSVGDVQMIARILEAEARYYYFAWGRPMTTKAMANLLSNILNENKWFPYLVQIIIGGYVDEPTIANLDPYGGLIFDNYTATGSGTPFAIAILEEGYKENLGIEEAKELAIKAIKAAGSRDVYTGSKKVQVVTITKEGMQEEFIKL”: the “soluble on expression in E. coli” value is recorded as “soluble”.

Consider “MGSDKIHHHHHHMNMLLSEEQRDALQELMNISMGQAANSLARLIEAKITLSIPKISDVTPEQFVSMLSDQTMWYTRQSFLGSIKGEVISTLSKQGCDAIGKLMDYQPPLTQDRLNELLLELANILAGACLTGFAEQLSLNAKLSMPTMYSATSQHYHYRWASTLMMEVEFKVEVSQFDSKIVICLEEASVQTLLAKLQQLLE”, for which the “soluble on expression in E. coli” value is “not soluble”.

As to “MYGYYSIGELTKEFSITARTLRYYEEEGLLVPCRHGSARFYTQTDRHKLKQILRAKRVKFSLSEISEMLSMVGKPPTDEKKLKELIAGVNKKRADLQQMQRDIDDFLHDLERIEETLFESLAELGVNR”, the “soluble on expression in E. coli” value is listed as “not soluble”.

On to “MILLQLNHISKSFDGEDIFTDVDFEVKTGERIGIVGRNGAGKSTLMKIIAGVENYDSGNVSKIKNLKLGYLTQQMTLNSNATVFEEMSKPFEHIKRMESLIKEETDWLSKHANDYDSDTYKTHMSRYESLSNQFEQLEGYQYESKIKTVLYGLNFSEEDFNKPINDFSGGQKTRLSLAQMLLNEPDLLLLDEPTNHLDLETTKWLEDYLRYFKGAIVIISHDRYFLDKIVTQIYDVALGDVKRYVGNYEEFIQQRDLYYQKRMQEYESQQAEIKRLETFVEKNITRASTSGMAKSRRKILEKMERIDKPMLDAKSANIQFGFDRNTGNDVMHVKNLEIGYQTAITKPMSIEVSKGDHIAIIGPNGIGKSTLIKTIANQQKALNGDITFGANLQIGYYDQKQAEFKSSKTILDYVWDQYPLMNEKDIRAVLGRFLFVQDDVKKIINDLSGGEKARLLLALLMLQRDNVLILDEPTNHLDIDSKEMLEQALQHFEGTILFVSHDRYFINQLANKVFDLTIDGGKMYLGDYQYYIEKVEEAEALKAHQEEQSVNVQAHKKSMEQSSYHNQKEQRREQRKLERQISECENEIETLETTILQIDEQLTQPEVYNNPQKANELAIQKQDSEQKLEHAMSKWEELQQKL”, for which the “soluble on expression in E. coli” value was “not soluble”.

“MSLTELYAKSDLEKIKETLPGWQLDSFNYLNEKIGDKENKFPCIPGRQAFLSDQLRIAFVGDPRNPETAKELAPLLTRYGTISRETGKYASLTVIFHTPEELLTDYKIEDYESLFWQLLNSLSMEDPADWPDDIPENPDNFQWEYCFNGEPYFVLCATPAHSKRKSRSFPYFMLTFQPRWVFEDLNDTTAFGRNMSKQIRKRLEAYDEVPIHPHLGWYGKKDNLEWKQYFLRDDENQVSQCPFMKMKNLFKKERSDEGHHHHHH”: the “soluble on expression in E. coli” value is “soluble”.

In the case of “MGSDKIHHHHHHMEVDDVWDDTELIKMYDESLQEISKNETSAKITSRKFKGEDGKMYTWKVGGKCMAPYEENGEVTDYPATIDTIGGADNLEVGVTFIYYGGQAVVQMKDLWLNEEAIADAVKAENDLQKTKKTSTVNSVAHSNSKSTSSAPNTSMPFPSFAPPVPPNIIAMAPVNQKEAMNSMLMSWYMSGYHTGYYQALADQKNVQN”, the “soluble on expression in E. coli” value is on record as “not soluble”.

In the case of “MGSDKIHHHHHHMRNKIEKGVDLNLRQFIKSLGYIAGGTALLASTPWLSSCTPEKLKEIRNEKARIALIGTGSRGQYHIHNLKEIPHARIVAVCDNYAPNLQQAVELCPGAKAYTDYRKLLESADIDGVIISTPLNWHAPIVLDALAAGKHVFCEKAMARTLDECKAIYDAYQTTNQVLYFCMQRMYDEKYIKGMQMIHSGLIGDVVGMRCHWFRNADWRRPVPSPELEHQINWRLYKESSGGLMTELACHQLEVCNWAAKRMPVSIIGMGDIVYWKDGREVYDSVNVTYRYSDGTKIAYESLISNKFNGMEDQILGHKGTMEMAKGIYYLEEDHSTSGIRQLIGQVKDKVFAAIPTAGPSWRPETKMEYTPHFVIEGDINVNNGLSMIGADKDGSDIILSSFCQSCITGEKAQNVVEEAYCSTVLCLLGNQAMEEERHILFPDEYKIPYMKF”, the “soluble on expression in E. coli” value is “not soluble”.
